In patent US20030100501A1, “Q4N2NEG2 enhances CFTR activity” (Case Western Reserve University, priority 2001, published 2003):
Square brackets hold non-standard residues; d marks the D form. Ends that are not written are not given here. Nle = CCCC[C@H](N)C(=O)O

Tests used:
mutant G551D CFTR = molecular target: T1, mutant G551D CFTR (Homo sapiens, UniProt P13569, G551D); experiment: Planar lipid bilayer open probability of mutant CFTR; type: biochemical
T1 construct: expressed in transfected cells; host or cells: 293-EBNA HEK cells (inferred: the methods describe this line for 'the CFTR proteins')
T1 sequence (P13569 whole entry G551D): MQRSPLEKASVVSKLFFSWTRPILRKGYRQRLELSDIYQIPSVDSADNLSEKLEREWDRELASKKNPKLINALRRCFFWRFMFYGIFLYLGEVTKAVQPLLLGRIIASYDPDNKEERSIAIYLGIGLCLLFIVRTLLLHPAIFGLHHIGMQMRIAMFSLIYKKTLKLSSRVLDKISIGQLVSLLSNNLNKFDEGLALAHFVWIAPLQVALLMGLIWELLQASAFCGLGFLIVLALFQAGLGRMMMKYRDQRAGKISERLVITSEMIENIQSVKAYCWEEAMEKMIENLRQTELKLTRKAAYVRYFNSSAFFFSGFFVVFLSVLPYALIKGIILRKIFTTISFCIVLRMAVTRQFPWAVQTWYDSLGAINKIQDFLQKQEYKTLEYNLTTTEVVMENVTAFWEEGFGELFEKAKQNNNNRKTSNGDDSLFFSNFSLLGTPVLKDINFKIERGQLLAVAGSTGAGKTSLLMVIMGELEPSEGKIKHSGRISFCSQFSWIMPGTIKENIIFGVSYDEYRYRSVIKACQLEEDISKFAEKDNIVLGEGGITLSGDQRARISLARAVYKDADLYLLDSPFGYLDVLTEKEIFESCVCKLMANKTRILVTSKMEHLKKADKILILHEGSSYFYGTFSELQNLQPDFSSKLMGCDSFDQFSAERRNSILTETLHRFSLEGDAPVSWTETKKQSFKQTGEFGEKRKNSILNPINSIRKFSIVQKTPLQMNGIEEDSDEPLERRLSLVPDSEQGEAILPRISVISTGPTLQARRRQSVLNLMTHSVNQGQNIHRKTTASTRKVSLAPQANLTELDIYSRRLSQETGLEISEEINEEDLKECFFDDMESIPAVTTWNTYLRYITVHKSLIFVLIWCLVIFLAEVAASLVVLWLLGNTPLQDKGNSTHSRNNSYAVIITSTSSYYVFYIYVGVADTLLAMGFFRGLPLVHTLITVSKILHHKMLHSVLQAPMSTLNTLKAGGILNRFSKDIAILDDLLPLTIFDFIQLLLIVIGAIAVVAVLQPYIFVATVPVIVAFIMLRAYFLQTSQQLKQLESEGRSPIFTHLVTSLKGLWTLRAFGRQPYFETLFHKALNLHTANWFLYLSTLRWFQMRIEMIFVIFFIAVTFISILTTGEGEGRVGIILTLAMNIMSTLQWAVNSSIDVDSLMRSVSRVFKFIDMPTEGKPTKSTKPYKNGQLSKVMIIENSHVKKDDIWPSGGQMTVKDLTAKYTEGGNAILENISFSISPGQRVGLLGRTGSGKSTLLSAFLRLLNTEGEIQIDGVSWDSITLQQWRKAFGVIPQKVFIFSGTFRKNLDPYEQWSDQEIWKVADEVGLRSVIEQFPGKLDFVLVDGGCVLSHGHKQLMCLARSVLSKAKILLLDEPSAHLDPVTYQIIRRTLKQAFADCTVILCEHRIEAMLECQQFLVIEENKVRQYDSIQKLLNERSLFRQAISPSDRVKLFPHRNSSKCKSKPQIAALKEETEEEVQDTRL
Source text: The Q4 N2 NEG2 peptide sequence has been tested on one mutant form of CFTR, G551D, which reaches the plasma membrane. In the planar lipid bilayer, Q4N2NEG2 increased the open probability of G551 by about threefold. Thus, this peptide is useful to stimulate channel activity in mutant forms of CFTR that reach the plasma membrane.
(§1) Lipid bilayer membranes were formed across an aperture of ˜200 (m diameter with a mixture of phosphatidylethanolamine:phosphatidylserine:cholesterol in a ratio of 5:5:1. The lipids were dissolved in decane at a concentration of 33 mg/ml. The recording solutions contained: cis (intracellular), 200 mM CsCl, 1 mM MgCl2, 2 mM ATP, and 10 mM HEPES-Tris (pH 7.4); trans (extracellular), 50 mM CsCl, 10 mM HEPES-Tris (pH 7.4). Vesicles (1-4 (1) containing wild-type CFTR were added to the cis solution. The PKA catalytic subunit was present at a concentration of 50 units/ml in the cis solution unless noted otherwise. Single channel currents were recorded with an Axopatch 200A patch clamp unit (Axon Instruments). The currents were sampled at 1-2.5 ms/point. Single channel data analyses were performed with pClamp and TIPS softwares.

wt-CFTR channel = molecular target: T2, wt-CFTR channel (Homo sapiens, UniProt P13569); experiment: Single channel recording of CFTR channels reconstituted in planar lipid bilayer, peptide added to cis (intracellular) side; type: biochemical
T2 construct: expressed in transfected cells; host or cells: 293-EBNA HEK cells (Invitrogen) transfected with pCEP4(wt); microsomal membrane vesicles
T2 sequence (P13569 whole entry): as the sequence (P13569 whole entry G551D) above, with D551G counted along it
Source text: The activating peptide of Q4N2NEG2 was created by substituting glutamine residues for glutamic acid residues at four sites and asparagines for aspartic acid residues at two sites of the authentic NEG2 peptide sequence […] (SEQ ID NO: 7). In addition, a serine residue was substituted for cysteine, to prevent peptide dimerization, and norleucine was substituted for methionine, to prevent oxidation. These changes create a peptide with reduced chemical reactivity and high predicted helical structure, confirmed by circular dichroism, as well as reduced net negative charge (from −9 to −3). […] At concentrations of 4-6 μM Po of CFTR doubles.
To test whether the Q4N2NEG2 polypeptide is responsible for increasing the open probability of the CFTR channel, synthetic Q4N2NEG2, a 22 amino acid peptide, was added to the cis-intracellular side of single CFTR channels captured in the planar lipid bilayer (FIG. 1). […] During stimulation, the open probability doubles and more transitions are observed between the open and closed states (FIG. 1B). The open probability observed in 5 experiments at 4 μM concentration Q4N2NEG2 is shown to be increased by about two-fold in the graph (FIG. 1C).
The wt CFTR cDNA was subcloned into an Epstein-Barr virus-based episomal eukaryotic expression vector, pCEP4 (Invitrogen, San Diego, Calif.), between the Nhe1 and Xho1 restriction sites.
A human embryonic kidney cell line (293-EBNA HEK; Invitrogen) was used for transfection and expression of the CFTR proteins (Ma et al., 1997, Ma et al., 1996, Xie et al., 1995). The HEK-293 cell line contains a pCMV-EBNA vector, which constitutively expresses the Epstein-Barr virus nuclear antigen-1 (EBNA-1) gene product and increases the transfection efficiency of Epstein-Barr virus-based vectors. The cells were maintained in Dulbecco's Modified Eagle Medium with 10% FBS and 1% L-glutamine. Geneticin (G418, 250 (g/ml) was added to the cell culture medium to maintain selection of the cells containing the pCMV-EBNA vector. Lipofectamine reagent (Life Technologies, Inc) in Optimem media (serum-free) was used to transfect the HEK-293 cells with pCEP4(wt). After 5 hours, serum was added to the media (10% final serum concentration). Twenty-four hours after transfection, the transfection media was replaced with fresh media. The cells were harvested two days after transfection and microsomal membrane vesicles were prepared for single channel measurements in the lipid bilayer reconstitution system.
HEK-293 cells transfected with pCEP4(CFTR) were harvested and homogenized using a combination of hypotonic lysis and Dounce homogenization in the presence of protease inhibitors (Ma et al., 1997, Ma et al., 1996, Xie et al., 1995). […]
as §1, with “The currents were sampled at 1-2.5 ms/point. Single channel data analyses were performed with pClamp and TIPS softwares.” left out

## GLEISEQINQQNLKQSFFNDLE (Ac-GLEISEQINQQNLKQSFFND[Nle]E; not fully specified (C-terminus)) [Q4N2NEG2, synthetic 22 amino acid peptide derived from NEG2 with four Glu to Gln, two Asp to Asn, Cys to Ser, Met to norleucine substitutions]
Mutant G551D CFTR
  increase in open probability of G551D CFTR: about threefold
wt-CFTR channel; 4 μM peptide, summary of 5 experiments (FIG. 1C)
  increase in open probability (Po) of CFTR channel: about two-fold
wt-CFTR channel; any experiment at any concentration of peptide
  inhibitory activity on CFTR channel: No inhibitory activity
wt-CFTR channel; concentration ranging 0.5 to 14 μM, cis side
  stimulation of channel activity: marked dose-related stimulation
wt-CFTR channel; peptide concentrations of 4-6 μM, cis side
  Po of CFTR: doubles
wt-CFTR channel; single channel trace, FIG. 1A/1B, 4 μM
  open probability during stimulation, single wt-CFTR channel: doubles
